Results on one substance are retold here after publication PMC2374443.

The target of the assay is integrin-associated protein (CD47/IAP) (human (endogenous in primary articular chondrocytes)).
Chain of integrin-associated protein (CD47/IAP) (human (endogenous in primary articular chondrocytes)) (Q08722 19-323): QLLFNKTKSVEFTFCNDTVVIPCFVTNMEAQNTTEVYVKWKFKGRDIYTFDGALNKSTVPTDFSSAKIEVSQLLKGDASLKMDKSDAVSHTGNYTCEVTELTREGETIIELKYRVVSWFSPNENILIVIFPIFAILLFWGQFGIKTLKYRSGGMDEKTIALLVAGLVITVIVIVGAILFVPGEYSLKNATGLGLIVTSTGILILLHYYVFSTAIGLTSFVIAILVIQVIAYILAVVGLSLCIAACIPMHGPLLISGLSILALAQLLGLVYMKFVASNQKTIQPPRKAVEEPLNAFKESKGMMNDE

Regarding “thrombospondin-1 (TSP-1) (from UniProt P07996 19-1170) (natural protein)”, the percentage change of membrane potential of normal chondrocytes after 20 min of 0.33 Hz mechanical stimulation in the presence of anti-CD47/IAP antibody Bric 126 (without antibody +21) came to 2%, the percentage change of membrane potential of osteoarthritic chondrocytes after 20 min of 0.33 Hz mechanical stimulation in the presence of anti-CD47/IAP antibody Bric 126 (without antibody -42) was -2% and the percentage change of membrane potential of osteoarthritic chondrocytes after 20 min of 0.33 Hz mechanical stimulation in the presence of anti-TSP-1 antibody (without antibody -42) was 3%.
